One test concerns the target human fibrinogen (human) (UniProt P02671). The experiment in a line: cell-based or functional assay.
The target in a further test is T1, human fibrinogen (human, UniProt P02671 20-629; P02675 31-491; P02679 27-437, limits assumed).
T1 construct: also called purified human fibrinogen
T1 sequence (looked up) 1: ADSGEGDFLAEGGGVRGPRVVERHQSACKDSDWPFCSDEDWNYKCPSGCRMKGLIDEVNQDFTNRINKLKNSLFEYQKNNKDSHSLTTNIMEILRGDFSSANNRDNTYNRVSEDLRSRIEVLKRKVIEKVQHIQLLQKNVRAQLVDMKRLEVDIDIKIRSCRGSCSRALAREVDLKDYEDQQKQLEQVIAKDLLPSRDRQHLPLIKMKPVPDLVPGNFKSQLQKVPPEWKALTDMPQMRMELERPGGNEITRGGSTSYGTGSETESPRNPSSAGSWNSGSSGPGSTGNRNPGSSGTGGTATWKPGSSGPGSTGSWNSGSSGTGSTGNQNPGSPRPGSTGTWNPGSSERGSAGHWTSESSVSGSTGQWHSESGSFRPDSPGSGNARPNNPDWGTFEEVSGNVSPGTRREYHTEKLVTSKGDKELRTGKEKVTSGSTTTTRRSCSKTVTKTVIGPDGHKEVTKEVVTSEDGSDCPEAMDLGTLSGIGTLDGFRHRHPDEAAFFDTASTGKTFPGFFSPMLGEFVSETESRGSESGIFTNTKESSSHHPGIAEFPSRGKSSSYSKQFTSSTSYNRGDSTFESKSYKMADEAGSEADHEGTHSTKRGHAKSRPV
T1 sequence (looked up) 2: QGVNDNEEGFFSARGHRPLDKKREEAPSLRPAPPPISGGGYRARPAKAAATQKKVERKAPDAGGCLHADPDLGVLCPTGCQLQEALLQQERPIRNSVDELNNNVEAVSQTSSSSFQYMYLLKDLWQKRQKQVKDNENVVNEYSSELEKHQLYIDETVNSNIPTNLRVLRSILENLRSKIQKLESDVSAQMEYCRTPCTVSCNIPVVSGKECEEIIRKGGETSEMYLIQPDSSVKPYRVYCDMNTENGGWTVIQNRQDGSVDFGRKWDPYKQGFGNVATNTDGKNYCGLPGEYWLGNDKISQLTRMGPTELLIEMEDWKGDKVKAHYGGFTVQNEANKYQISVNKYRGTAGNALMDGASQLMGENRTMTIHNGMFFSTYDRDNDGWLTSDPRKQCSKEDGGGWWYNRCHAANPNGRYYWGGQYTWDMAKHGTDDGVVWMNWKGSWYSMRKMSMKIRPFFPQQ
T1 sequence (looked up) 3: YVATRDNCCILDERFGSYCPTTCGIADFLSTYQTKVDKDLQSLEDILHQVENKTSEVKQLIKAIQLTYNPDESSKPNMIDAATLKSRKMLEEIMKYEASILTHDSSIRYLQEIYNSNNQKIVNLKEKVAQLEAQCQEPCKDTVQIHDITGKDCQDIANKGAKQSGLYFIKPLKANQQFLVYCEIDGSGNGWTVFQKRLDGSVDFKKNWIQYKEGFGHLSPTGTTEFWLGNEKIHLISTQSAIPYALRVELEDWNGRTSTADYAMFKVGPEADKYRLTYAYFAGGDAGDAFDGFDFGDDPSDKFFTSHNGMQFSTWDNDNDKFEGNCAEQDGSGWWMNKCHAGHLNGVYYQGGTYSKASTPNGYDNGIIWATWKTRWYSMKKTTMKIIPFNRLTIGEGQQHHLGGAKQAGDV
The test can be described thus: flow cytometry; peptide-albumin microparticles incubated with fluorescent fibrinogen.

Where no end group is shown, it is not given here. Where only a bound is given, the exact number is not on record here.

Two molecules from patent publication US20150071985A1 (HAEMOSTATIX, published 2015) can be followed below.

As to “PeproStat (GPRPG-PEG12-maleimide conjugated to thiolated human serum albumin) (from UniProt P02768 25-609)”, in the test with human fibrinogen (human), the Clotting activity (time to clot formation, Sigma Amelung KC4 coagulometer; 30 µL sample at 0.5 mg/ml added to 100 µL purified human fibrinogen at 3 mg/ml) is below 6 s.

B1: GPRPG peptide conjugated to albumin microparticles (peptide)
peptide: GPRPG
modifications: also: conjugated to albumin microparticles, linker and chemistry not given here
notes: Surrogate of PeproStat for the flow cytometry test; also called the particles; not shown: The albumin microparticle carrier
As to B1, the binding result in the test with human fibrinogen is “binds”.
